Reference: patent publication US20250361322A1 (ICONIC THERAPEUTICS, published 2025)
Like-named read-outs stand apart in the source and are kept apart here. One block for each binder: values may come before it.

How the values were obtained:
[1] = biological target: T1, hTF (human Tissue Factor construct) (human, UniProt P13726 33-251); assay: live cell staining, flow cytometry, transfected HEK293
T1 construct: also called human TF

hTF_N171H_T197K = biological target: T2, hTF_N171H_T197K (human, UniProt P13726 33-251); assay: as above
T2 chain: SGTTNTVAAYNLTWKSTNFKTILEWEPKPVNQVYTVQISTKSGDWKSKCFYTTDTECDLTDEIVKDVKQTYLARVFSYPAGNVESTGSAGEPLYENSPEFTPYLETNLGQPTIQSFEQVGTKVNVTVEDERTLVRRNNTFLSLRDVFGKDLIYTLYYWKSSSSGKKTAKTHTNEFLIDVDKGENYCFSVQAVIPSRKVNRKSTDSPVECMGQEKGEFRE

r141-194_h = r141-194_h (rat/human chimera, UniProt P42533 29-252); assay: as above
rTF (rat TF) [2] = biological target: T3, rTF (rat TF) (rat, UniProt P42533 29-252); assay: as above
h1-77_r = biological target: T4, h1-77_r (human/rat chimera); assay: as above
T4 construct: Human TF ECD with residues 1-77 replaced by rat segment

h78-107_r.v2 = h78-107_r.v2 (human/rat chimera); assay: as above
h1-107_r = biological target: T5, h1-107_r (human/rat chimera); assay: as above
T5 chain: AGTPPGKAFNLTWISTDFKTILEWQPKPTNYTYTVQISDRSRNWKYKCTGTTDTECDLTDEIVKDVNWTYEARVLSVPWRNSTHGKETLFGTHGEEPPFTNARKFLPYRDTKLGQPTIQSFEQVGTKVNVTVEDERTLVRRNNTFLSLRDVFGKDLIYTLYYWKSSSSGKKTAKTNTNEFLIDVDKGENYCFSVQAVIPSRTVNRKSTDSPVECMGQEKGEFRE

rTF (rat TF) [3] = biological target: T3, rTF (rat TF); assay: as above; remark: listed apart in the source
pig TF-His [4] = biological target: T6, pig TF-His (Pig (Sus scrofa)); assay: Biacore SPR, antibody captured by anti-human IgG on CM5, pig TF-His titrated
T6 construct: also called pig TF ECD-His; pTF
T6 chain: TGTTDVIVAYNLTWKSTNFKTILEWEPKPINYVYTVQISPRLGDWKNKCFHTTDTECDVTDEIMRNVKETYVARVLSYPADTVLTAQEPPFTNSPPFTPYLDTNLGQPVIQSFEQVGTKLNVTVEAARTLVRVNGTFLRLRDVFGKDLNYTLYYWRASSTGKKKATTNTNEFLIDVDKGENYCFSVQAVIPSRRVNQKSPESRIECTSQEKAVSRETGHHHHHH

[5] = biological target: T7, human Tissue Factor on human TF-positive cells (human, UniProt P13726 33-295); assay: competition flow cytometry on MDA-MB-231 cells: antibody titration first, then 20 nM FVII-Fc-Alexa488 as the blocked ligand
T7 construct: also called hTF; CD142

[6] = biological target: T8, cynomolgus monkey TF ECD-His6 (cynomolgus monkey (Macaca fascicularis)); assay: BLI (ForteBio Octet)
T8 construct: Expi293-derived; also called TF-His; cTF
T8 chain: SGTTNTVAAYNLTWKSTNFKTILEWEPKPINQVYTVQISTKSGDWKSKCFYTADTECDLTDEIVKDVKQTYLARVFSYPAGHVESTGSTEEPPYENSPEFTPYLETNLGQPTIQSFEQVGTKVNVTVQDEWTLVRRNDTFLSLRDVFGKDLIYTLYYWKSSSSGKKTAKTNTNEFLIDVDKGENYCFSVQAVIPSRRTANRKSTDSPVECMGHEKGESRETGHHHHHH

human TF ECD-His6 [7] = biological target: T9, human TF ECD-His6 (human, UniProt P13726 33-251); assay: BLI (ForteBio Octet)
T9 construct: Expi293-derived; Biacore used TF-His; also called TF-His; hTF

[8] = biological target: T8, cynomolgus monkey TF ECD-His6; assay: SPR (Biacore), TF-His over coupled antibody
human TF ECD-His6 [9] = biological target: T9, human TF ECD-His6; assay: SPR (Biacore), TF-His over coupled antibody
[10] = biological target: T7, human Tissue Factor on human …; assay: flow cytometry, antibody titration on MDA-MB-231 cells (human TF), 4-parameter fit of MFI
[11] = biological target: T10, full-length mouse TF with a C-terminal FLAG tag on Flp-In-CHO cells (mouse, UniProt P20352 29-294); assay: flow cytometry, antibody titration on CHO cells expressing mouse TF
T10 construct: also called CHO-mTF; mouse TF-positive CHO cells

[12] = biological target: T10, full-length mouse TF with a C-terminal …; assay: flow cytometry on CHO cells expressing mouse TF, MFI at 250 nM antibody
[13] = biological target: T7, human Tissue Factor on human …; assay: flow cytometry, titration of unconjugated antibody on HCT-116 cells (human TF), 4-parameter fit of MFI
Relipidated TF [14] = biological target: T11, Relipidated TF (UniProt P13726 33-295, limits assumed); assay: cell-based or functional assay
[15] = biological target: T7, human Tissue Factor on human …; assay: flow cytometry, antibody titration on HCT-116 cells (endogenous human TF), 4-parameter fit of MFI
[16] = biological target: T7, human Tissue Factor on human …; assay: flow cytometry, antibody titration on A431 cells (human TF), 4-parameter fit of MFI
[17] = biological target: T12, rTF (rat TF) construct on HEK293 cells (rat, UniProt P42533 29-252); assay: live cell staining, HEK293 cells
T12 construct: not shown: transmembrane/cytoplasmic anchor of the cell-surface construct

[18] = biological target: T7, human Tissue Factor on human …; assay: competition flow cytometry on MDA-MB-231 cells: unlabeled antibody titration first, then 20 nM 39A-Alexa488 as the competitor
Relipidated TF [19] = biological target: T11, Relipidated TF; assay: cell-based or functional assay; remark: listed apart in the source
[20] = biological target: T7, human Tissue Factor on human …; assay: competition flow cytometry on MDA-MB-231 cells: unlabeled antibody titration first, then 20 nM 39A-Alexa488 as the competitor; remark: listed apart in the source
pig TF-His [21] = biological target: T6, pig TF-His; assay: Biacore SPR, antibody captured by anti-human IgG on CM5, pig TF-His titrated from 100 nM, 1:1 fit

T12 sequence (P42533 29-252 limits assumed): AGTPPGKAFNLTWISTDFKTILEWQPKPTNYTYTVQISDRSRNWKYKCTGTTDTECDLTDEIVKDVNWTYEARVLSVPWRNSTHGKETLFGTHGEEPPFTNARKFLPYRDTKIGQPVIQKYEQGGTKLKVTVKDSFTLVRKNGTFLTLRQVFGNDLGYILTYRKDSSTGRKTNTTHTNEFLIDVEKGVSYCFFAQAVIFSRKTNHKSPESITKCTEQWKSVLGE

B1: 29E (antibody, V domains shown)
VH: QVQLVESGGGVVQPGRSLRLSCAASGFTFRSYGMHWVRQAPGKGLEWVAVITYDGINKYYADSVEGRFTISRDNSKNTLYLQMNSLRAEDTAVYYCARDGVYYGVYDYWGQGTLVTVSS
VL: not shown
notes: Human IgG (detected with anti-human IgG-Fc)
percent antibody binding to TF construct relative to hTF [1]: 100%
percent antibody binding to TF construct relative to hTF (hTF_N171H_T197K): 98%
percent antibody binding to TF construct relative to hTF (r141-194_h): 0%
percent antibody binding to TF construct relative to hTF (rTF (rat TF) [2]): 0%
percent antibody binding to TF construct relative to hTF (h1-77_r): 0%
percent antibody binding to TF construct relative to hTF (h78-107_r.v2): 0%
percent antibody binding to TF construct relative to hTF (h1-107_r): 0%
percent antibody binding to TF construct relative to hTF (rTF (rat TF) [3]): 0%

B3: 39A (antibody, human IgG1, V domains shown)
VH: QVQLVQSGAEVKKPGSSVKVSCKASGGTFSSNAIGWVRQAPGQGLEWMGSIIPIIGFANYAQKFQGRVTITADESTSTAYMELSSLRSEDTAVYYCARDSGYYYGASSFGMDVWGQGTTVTVSS
VL: EIVMTQSPATLSVSPGERATLSCRASQSVSSNLAWYQQKPGQAPRLLIYGASTRATGIPARFSGSGSGTEFTLTISSLQSEDFAVYYCEQYNNLPLTFGGGTKVEIK
notes: Human IgG1; also called antibody designated 39A
IC50 (read off the curve) [5]: ~0.8 nM
Kd [6]: 0.57 nM
Kd (human TF ECD-His6 [7]): 0.83 nM
Kd [8]: 0.08 nM
Kd (human TF ECD-His6 [9]): 0.09 nM
EC50 [10]: 0.06 nM
binding result [11]: no binding (tested: 250 nM)
MFI at 250 nM [12]: 3700
EC50 [13]: 0.09 nM
% ETP at 10 nM Ab (TGA with 10 min antibody pre-incubation) (Relipidated TF [14]): 28%
% ETP at 50 nM Ab (TGA with 10 min antibody pre-incubation) (Relipidated TF [14]): 20%
% Peak IIa at 10 nM Ab (TGA with 10 min antibody pre-incubation) (Relipidated TF [14]): 9%
% Peak IIa at 50 nM Ab (TGA with 10 min antibody pre-incubation) (Relipidated TF [14]): 7%
% Peak IIa at 100 nM Ab (TGA with 10 min antibody pre-incubation) (Relipidated TF [14]): 7%
ETP at 10 nM Ab (TGA with 10 min antibody pre-incubation) (Relipidated TF [14]): 482 nM·min
ETP at 50 nM Ab (TGA with 10 min antibody pre-incubation) (Relipidated TF [14]): 346 nM·min
Lag Time at 10 nM Ab (TGA with 10 min antibody pre-incubation) (Relipidated TF [14]): 20.8 min
Lag Time at 50 nM Ab (TGA with 10 min antibody pre-incubation) (Relipidated TF [14]): 28.4 min
Lag Time at 100 nM Ab (TGA with 10 min antibody pre-incubation) (Relipidated TF [14]): 28 min
Peak IIa at 10 nM Ab (TGA with 10 min antibody pre-incubation) (Relipidated TF [14]): 25 nM
Peak IIa at 50 nM Ab (TGA with 10 min antibody pre-incubation) (Relipidated TF [14]): 17 nM
Peak IIa at 100 nM Ab (TGA with 10 min antibody pre-incubation) (Relipidated TF [14]): 17 nM
ttPeak at 10 nM Ab (TGA with 10 min antibody pre-incubation) (Relipidated TF [14]): 30.7 min
ttPeak at 50 nM Ab (TGA with 10 min antibody pre-incubation) (Relipidated TF [14]): 38.9 min
ttPeak at 100 nM Ab (TGA with 10 min antibody pre-incubation) (Relipidated TF [14]): 40.2 min
EC50 [15]: 0.039 nM
EC50 [16]: 0.34 nM
binding result [17]: no binding
IC50 [18]: 0.5 nM
% ETP at 10 nM Ab (TGA without antibody pre-incubation) (Relipidated TF [19]): 55%
% Peak IIa at 10 nM Ab (TGA without antibody pre-incubation) (Relipidated TF [19]): 20%
% Peak IIa at 50 nM Ab (TGA without antibody pre-incubation) (Relipidated TF [19]): 7%
% Peak IIa at 100 nM Ab (TGA without antibody pre-incubation) (Relipidated TF [19]): 6%
ETP at 10 nM Ab (TGA without antibody pre-incubation) (Relipidated TF [19]): 1330 nM·min
Lag Time at 10 nM Ab (TGA without antibody pre-incubation) (Relipidated TF [19]): 12.1 min
Lag Time at 50 nM Ab (TGA without antibody pre-incubation) (Relipidated TF [19]): 30.5 min
Lag Time at 100 nM Ab (TGA without antibody pre-incubation) (Relipidated TF [19]): 28.9 min
Peak IIa at 10 nM Ab (TGA without antibody pre-incubation) (Relipidated TF [19]): 82 nM
Peak IIa at 50 nM Ab (TGA without antibody pre-incubation) (Relipidated TF [19]): 30 nM
Peak IIa at 100 nM Ab (TGA without antibody pre-incubation) (Relipidated TF [19]): 26 nM
ttPeak at 10 nM Ab (TGA without antibody pre-incubation) (Relipidated TF [19]): 19.6 min
ttPeak at 50 nM Ab (TGA without antibody pre-incubation) (Relipidated TF [19]): 40 min
ttPeak at 100 nM Ab (TGA without antibody pre-incubation) (Relipidated TF [19]): 40.1 min
IC50 [20]: 0.49 nM

More lines, now with the values ahead:

binding result (pig TF-His [4]): no binding
B2: 29D (antibody, V domains shown)
VH: QVQLVESGGGVVQPGRSLRLSCAASGFTFHSRGMHWVRQAPGKGLEWVAVITYDGINKYYADSVEGRFTISRDNSKNTLYLQMNSLRAEDTAVYYCARDGVYYGVYDYWGQGTLVTVSS
VL: not shown
notes: Human IgG (captured by anti-human IgG in the Biacore assay); also called antibody designated 29D

Kd (pig TF-His [21]): 12.9 nM
B4: 43D8 (antibody, V domains shown)
VH: QVQLQQWGAGLLKPSETLSLTCAVYGGSLSGYYWSWIRQPPGKGLEWIGEIGASGSTRYNPSLKSRVTISVDTSKNQFSLKLSSVTAADTAVYYCARDTPYYYEGGYYYYMDVWGKGTTVTVSS
VL: EIVLTQSPGTLSLSPGERATLSCRASQSVSSSFLAWYQQKPGQAPRLLIYGAYSRATGIPDRFSGSGSGTDFTLTISRLEPEDFAVYYCQQAGVVPYTFGGGTKVEIK
notes: Human IgG (captured by anti-human IgG in the Biacore assay); also called antibody designated 43D8
